Here are results for five molecules from patent US20240229045, “APTAMER FOR SPECIFICALLY RECOGNIZING SOLUBLE ST2 PROTEIN AND APPLICATION OF THE SAME” (BEIJING INSTITUTE OF HEART, LUNG AND BLOOD VESSEL DISEASES, published 2024).

The target of series [1] is T1, soluble ST2 (sST2, IL1RL1 soluble isoform) (Homo sapiens, UniProt Q01638-2 Q01638-2:19-328). The experiment in a line: EMSA; strong binding; room temperature 30 min. The procedure: According to the experimental formula shown in Table 4, the aptamer was added to the buffer solution and nuclease-free water, heated at 95° C. for 10 minutes, quenched on ice for 10 minutes, and room temperature for 10 minutes.
T1 sequence (Q01638 other isoform, or with tags, fused parts or gaps): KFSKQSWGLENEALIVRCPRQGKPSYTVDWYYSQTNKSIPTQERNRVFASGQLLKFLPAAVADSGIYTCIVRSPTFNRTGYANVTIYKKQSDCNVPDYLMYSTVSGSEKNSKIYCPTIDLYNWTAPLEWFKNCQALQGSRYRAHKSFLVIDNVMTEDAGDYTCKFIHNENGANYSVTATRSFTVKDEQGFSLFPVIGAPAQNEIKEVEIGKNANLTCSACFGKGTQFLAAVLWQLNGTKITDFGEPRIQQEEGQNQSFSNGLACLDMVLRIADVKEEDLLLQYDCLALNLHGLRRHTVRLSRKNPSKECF
The above DNA solution and sST2 protein were slowly mixed to a final volume of 20 μL, and a sample containing only aptamer and no protein was used as a negative control, and incubated with rotation at room temperature for 30 minutes.
For orientation: Mobility shift assays separate free from complexed probe on a gel.

In series [2] the target is T1, soluble ST2 (sST2, IL1RL1 soluble …). The experiment in a line: fiber-optic fluorescence, sST2 immobilised; 137 mM NaCl, 2.7 mM KCl, phosphate.

For the molecule TCCATCCACTCGGGCCCTAGGGCGTGTATGTCCAT (ssDNA) [Apt2], in series [1], the binding result is given as “binds”.

Take TCCATCCACTCGGGGCGGGGGCTCGTGCTCTATTTC (ssDNA) [Apt4]: the Kd (in general, a measure of binding affinity in units of concentration) in series [2] was found to be 127 nM.

As to TCCATCCACTCGGCCTACTAAGGGTTTCGTTCACC (ssDNA) [Apt3], the binding result in series [1] is listed as “binds”.

For TCCATCCACTCGGCGCCACGCGGTTTCTCCAGATT (ssDNA) [Apt8], in series [1], the binding result is “binds”.

Take TCCATCCACTCGGGGCTAGAAGCCGTGAGAATCTG (ssDNA) [Apt1]: the binding result in series [1] was “binds”.
